In paper PMC7615710 one finds Kd data, which are given here for two substances.

The target of assay [1] is PP1α (Homo sapiens) (UniProt P62136). The conditions noted are these: cited from earlier work.
The target in assay [2] is Bin1 SH3 domain (513-593) (human) (UniProt O00499). Put plainly: ITC; 450 or 300 uM NS5A PRR peptide (syringe) titrated to 30 uM ASPP CTD or SH3 domain (cell), 12 °C, 25 mM HEPES pH 7.5, 150 mM NaCl, 500 uM TCEP; 25 steps of 10 ul; AB hetero association model (SEDPHAT).
Bin1 SH3 domain (513-593) (human), sequence (O00499 513-593): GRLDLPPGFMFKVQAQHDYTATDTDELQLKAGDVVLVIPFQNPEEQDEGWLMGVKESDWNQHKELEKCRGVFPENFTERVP

ASPP2 SH3, sequence (Q13625 1054-1122): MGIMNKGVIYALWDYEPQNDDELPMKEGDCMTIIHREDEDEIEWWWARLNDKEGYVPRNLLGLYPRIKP
PP1α (Homo sapiens), sequence (P62136 2-330): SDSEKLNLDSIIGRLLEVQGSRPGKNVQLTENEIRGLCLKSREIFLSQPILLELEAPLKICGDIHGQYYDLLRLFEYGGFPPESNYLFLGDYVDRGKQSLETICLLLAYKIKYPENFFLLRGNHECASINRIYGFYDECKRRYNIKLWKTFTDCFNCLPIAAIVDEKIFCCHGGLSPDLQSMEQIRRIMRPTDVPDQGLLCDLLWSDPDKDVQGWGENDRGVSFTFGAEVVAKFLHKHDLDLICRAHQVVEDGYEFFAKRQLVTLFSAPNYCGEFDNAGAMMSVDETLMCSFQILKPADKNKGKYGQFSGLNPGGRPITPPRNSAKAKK

On to ASPP2 SH3 (from UniProt Q13625), for which the Kd in assay [1] was 140 nM. In assay [2], “HCV [1a.1] NS5A PRR peptide (peptide; other documents disagree on this pair)” showed a dissociation constant (Kd) of 30.3 nM.
